Test results as given in US20130189280A1.

Key:
[1] = target: human hemoglobin (Sigma) (human) (UniProt P69905)
[2] = target: fibrinogen from human plasma (Sigma) (human) (UniProt P02671); experiment: ELISA, fibrinogen titrated on immobilized K1; apparent Kd (FIG. 21)
[3] = target: fibrinogen from human plasma (Sigma) (human) (UniProt P02671); experiment: ELISA, fibrinogen titrated on immobilized K3; apparent Kd (FIG. 21)
[4] = target: complex of recombinant human serum albumin and hemin (rHSA-heme) (human) (UniProt P02768); experiment: ELISA, rHSA-heme against rHSA on immobilized K3 (FIG. 22)

## K1 domain (Gly982-Gly1154) of lysine gingipain Kgp from Porphyromonas gingivalis W83, recombinant (from UniProt Q51817 982-1154)
[1]
  Kd: 360 nM
[2]
  Kd: 1500 nM

## K3 domain (Ala1427-Gly1602) of lysine gingipain Kgp from Porphyromonas gingivalis W83, recombinant, non-tagged (from UniProt Q51817 1427-1602)
[1]
  Kd: 154 nM
[3]
  Kd: 570 nM
[4]
  fold increase of binding affinity against rHSA without heme: 9 fold
